Experimental data taken from patent CN115894704A (UNIV SICHUAN, dated 2023).

B1: Anti-EpCAM-VHH SEQ ID NO 4 (phage-displayed) (VHH)
VHH: QVQLVESGGGSVQAGGSLRLSCVATGFTISRKCMGWFREAPGKKREVIATINTGSSSPYYADGVKGRFTISQDNAKNTVYLQMNSLKPEDTAMYYCAATKGVVVGTGYCGGPYVERPNSAYWGQGTQVTVSS
notes: fusion to the phage coat protein is not described
B2: Anti-EpCAM-VHH SEQ ID NO 3 (phage-displayed) (VHH)
VHH: QVQLVESGGGSVQAGGSLRLSCVVSAYSAYTYKTMCMGWFRQAPGKEREGVAAIYRGGLNTYYADSVKGRFIISRDNAESTMYLQMNSLKPEDTAMYYCAADWLRGDDCNIGANFDYWGQGTQVTVSS
notes: as for B1
B3: Anti-EpCAM-VHH SEQ ID NO 5 (phage-displayed) (VHH)
VHH: DVQLVESGGGSVQAGRSLRLSCELSDYTWSTVCMGWFRQAPGKEREGVAVIYTRSGGTTYADSAKGRFTISRDNAKDTLYLQMDSLKPEDTAMYYCAAGPLYDGRCTYRSPAFHYWGQGTQVTVSS
notes: as for B1
B4: Anti-EpCAM-VHH SEQ ID NO 8 (phage-displayed) (VHH)
VHH: EVQLVESGGDSVQAGGSLRLSCAASGYSPGSYCMGWFRQAPGKERERVAIIESRGTVTYVDSVKGRFTISKDNAKNTLYLQMNSLKPEDTAMYYCAASRPWSGVRCLHDKYDYWGQGTQVTVSS
notes: as for B1
B5: Anti-EpCAM-VHH SEQ ID NO 6 (phage-displayed) (VHH)
VHH: DVQLVESGGGSAQAGGSLRLSCAASGPTSSLRTMGWFRQASGKERERVAVIWDGRTTDYDDSVQDRFTISQDNAKSTVYLQMNTLKPEDTAMYYCAASPRIVPFASTYFQHWGQGTQVTVSS
notes: as for B1
B6: Anti-EpCAM-VHH SEQ ID NO 9 (phage-displayed) (VHH)
VHH: HVQLVESGGGSVQSGGSLRLSCAVSGYAYSSLAWFRQAPGKEREGVAALLTAIGGPTRTTYADSVKGRLAISQDHAKNTLYLQMSSLKPEDTAMYYCAAGRPAGTPRWLLLAPRDYNYWGQGTQVTVSS
notes: as for B1
B7: Anti-EpCAM-VHH SEQ ID NO 2 (phage-displayed) (VHH)
VHH: HVQLVESGGGSVQSGGSLRLSCAASGYAVKNCMGWFRQAPGKEREGVAVINRNGITTYADSVKGRFTISQDKDKNTLDLQMNSLKPEDTAMYYCAATPTLLTIPARFLCDVRNPSGFTDWGQGTLVTVSS
notes: as for B1
B8: Anti-EpCAM-VHH SEQ ID NO 1 (phage-displayed) (VHH)
VHH: DVQLVESGGGSVQSGGSLRLSCAASGYTYRRYYMGWFRQAPGEQREGVAVINNDGRTNYADSVKGRFRISRDNAENTLHLEMNSLKPEDTAMYYCAATGNILPPMTAVPPLGRQWYPYWGRGTLVTVSS
notes: as for B1
B9: Anti-EpCAM-VHH SEQ ID NO 7 (phage-displayed) (VHH)
VHH: HVQLVESGGGSVQAGGSLKLSCAASGSIFSGSIFSRCGMRWYRQAPGKERELVSSTSKDGFTSYTDSVKGRFTISQDNANNTLYLQMSSLKTEDTAVYSCAAICAVGGYSLSTYTYWGQGTQVTVSS
notes: as for B1

molecular target: T1, EpCAM-camFc(人EpCAM与羊驼Fc重组蛋白) (human, UniProt P16422 24-265); test: phage ELISA, EpCAM-camFc coated, anti-M13 HRP
T1 construct: Recombinant fusion of human EpCAM and alpaca Fc; not shown: alpaca Fc
T1 sequence (looked up): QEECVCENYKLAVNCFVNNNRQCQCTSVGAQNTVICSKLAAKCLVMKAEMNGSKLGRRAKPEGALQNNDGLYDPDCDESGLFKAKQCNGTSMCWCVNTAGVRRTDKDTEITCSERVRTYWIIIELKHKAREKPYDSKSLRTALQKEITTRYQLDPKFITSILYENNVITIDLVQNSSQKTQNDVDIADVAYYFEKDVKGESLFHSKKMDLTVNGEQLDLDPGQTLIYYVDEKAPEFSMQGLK

**Q.** Does B1 bind?
**A.** binds

**Q.** Does B2 bind?
**A.** binds

**Q.** Does B3 bind?
**A.** binds

**Q.** Does B4 bind?
**A.** binds

**Q.** Does B5 bind?
**A.** binds

**Q.** Does B6 bind?
**A.** binds

**Q.** Does B7 bind?
**A.** binds

**Q.** Does B8 bind?
**A.** binds

**Q.** Does B9 bind?
**A.** binds
